As a reminder, the Kd is the constant that tells how readily two partners part at equilibrium. A low value points to higher affinity. For orientation: koff means a measure of how fast the partners let go of each other. Read a low koff as slow dissociation. As a reminder, the kon is a measure of how fast the partners come together. Read a low kon as slow association.

The source of these data is US20110086041A1.

The target of assay [1] is monomeric 92UG-gp120 core protein (HIV-1 isolate 92UG037). The assay is described as follows: SPR; told with a reference to Rits-Volloch et al. 2006 and FIG. 6C.
For assay [2] the target is unchanged. The assay is described as follows: SPR, b12 IgG immobilized, 92UG gp120 flowing, single analyte concentration. In general terms: In SPR one partner is held on a chip, and binding of the other changes the refractive index at the surface.
The target in assay [3] is HXB2-gp41-interf-GCN4 (HIV-1 isolate HXB2) (UniProt P04578). Briefly: SPR, His-4E10 scFv on Ni-NTA chip, HXB2gp41-interf-GCN4 flowing at 50 nM, single concentration.
For assay [4], the target named is 92UG-gp41-inter-Fd (HIV-1 isolate 92UG037.8). The assay is described as follows: SPR, 92UGgp41-inter-Fd immobilized on CM-5, 4E10 scFv flowing at 50 nM, single concentration.
Assay [5] addresses biotinylated 4E10 epitope peptide. The assay is described as follows: SPR, biotinylated 4E10 epitope peptide on SA chip, 4E10 scFv flowing.
Assay [6] addresses short 2F5 epitope peptide. The assay is described as follows: SPR, 2F5 Fab immobilized, 2F5 epitope peptide flowing.
Assay [7] addresses HXB2-gp41-inter-GCN4 (HIV-1 isolate HXB2) (UniProt P04578). The assay is described as follows: SPR, 2F5 Fab immobilized, HXB2gp41-inter-GCN4 flowing; dissociation phase virtually flat, actual off-rate probably slower.
Assay [8] has as its target 92UG-gp41-inter-Fd (HIV-1 isolate 92UG037.8). Briefly: SPR, 2F5 Fab immobilized, 92UGgp41-inter-Fd flowing, 1:1 Langmuir model.
Assay [9] shares this target. The assay is described as follows: SPR, 92UGgp41-inter-Fd immobilized, 2F5 Fab flowing.
Assay [10] concerns the target T20 peptide. Briefly: SPR, 2F5 Fab immobilized, T20 flowing.
The target in assay [11] is 92UG-gp41-inter-Fd (HIV-1 isolate 92UG037.8). The assay is described as follows: SPR, told of the gp41-inter proteins as a group.
In assay [12] the target is HXB2-gp41-inter-GCN4 (HIV-1 isolate HXB2) (UniProt P04578). Briefly: SPR, told of the gp41-inter proteins as a group.
Assay [13] addresses 92UG-gp41-inter-Fd (HIV-1 isolate 92UG037.8). The assay is described as follows: SPR, told of the gp41-inter proteins as a group; Table 1 ties this value to 92UGgp41-inter-Fd.
The target in assay [14] is HXB2-gp41-inter-GCN4 (HIV-1 isolate HXB2) (UniProt P04578). The assay is described as follows: SPR, 2F5 Fab immobilized, HXB2gp41-inter-GCN4 flowing, 1:1 Langmuir model.
In assay [15] the target is short 2F5 epitope peptide. The assay is described as follows: SPR, 2F5 epitope peptide immobilized, 2F5 Fab flowing.
The target in assay [16] is 92UG-gp41-post (HIV-1 isolate 92UG037.8). The assay is described as follows: SPR, 2F5 Fab immobilized, 92UGgp41-post flowing.
Assay [17] concerns the target 92UG-gp41-inter-Fd (HIV-1 isolate 92UG037.8). Briefly: SPR, 2F5 Fab immobilized, 92UGgp41-inter-Fd flowing; dissociation phase virtually flat, actual off-rate probably slower.
Assay [18] deals with 92UG-gp140-Fd trimer (HIV-1 isolate 92UG037.8). Briefly: SPR, 92UGgp140-Fd immobilized, 2G12 Fab flowing, 1:1 Langmuir model.
The target of assay [19] is monomeric 92UG-gp120 core protein (HIV-1 isolate 92UG037). Briefly: SPR, b6 IgG immobilized, 92UG gp120 flowing, single analyte concentration.

In the case of mAb b12 whole IgG (antibody), the Kd in assay [1] amounted to 1400 nM. In [2], this substance came in with a Kd of 993 nM, a koff of 0.0149 s⁻¹ and a kon of 15000 M⁻¹ s⁻¹.
Turning to 4E10 single-chain Fv fragment (scFv), the Kd in assay [3] was found to be 2.98 nM; in [4], 1.07 nM; in assay [5], 18.6 nM. For the same substance, the dissociation rate constant (koff) in [3] stood at 0.000443 s⁻¹; in [4] it was 0.000171 s⁻¹; in assay [5] it was 0.000685 s⁻¹. The kon was 149000 M⁻¹ s⁻¹ in [3], 160000 M⁻¹ s⁻¹ in assay [4] and 36900 M⁻¹ s⁻¹ in assay [5].
On to Fab fragment of mAb 2F5, for which the Kd in assay [6] is 3.83 nM; in [8], 1.38 nM; in assay [9], 3.24 nM; in [10], 4.79 nM; in [11], under 10 nM; in assay [12], under 10 nM. Moreover, the figures for the Kd in assay [14], in [15] and in assay [16] were 8.96 nM, 5.33 nM and 1410 nM, respectively. Moreover, the koff is 0.00329 s⁻¹ in [6]; 6.11e-05 s⁻¹ in assay [7]; 0.000496 s⁻¹ in assay [9]; 0.00217 s⁻¹ in assay [10]; under 1.4e-05 s⁻¹ in assay [13]; 0.0015 s⁻¹ in [15]. Further, the values for the koff in assay [16] and in [17] were 0.00243 s⁻¹ and 1.39e-05 s⁻¹, respectively. The kon is 859000 M⁻¹ s⁻¹ in assay [6]; 10000 M⁻¹ s⁻¹ in [8]; 153000 M⁻¹ s⁻¹ in assay [9]; 454000 M⁻¹ s⁻¹ in [10]; 6820 M⁻¹ s⁻¹ in assay [14]; 282000 M⁻¹ s⁻¹ in [15]. Besides, the kon in assay [16] was determined as 1660 M⁻¹ s⁻¹.
For “Fab fragment of broadly neutralizing antibody 2G12”, in [18], the Kd turned out to be 17.9 nM, the off-rate constant (koff) worked out at 0.000958 s⁻¹ and the kon amounted to 53500 M⁻¹ s⁻¹.
In [19], mAb b6 whole IgG (antibody) displayed a Kd of 2.69 nM, a dissociation rate constant (koff) of 0.000151 s⁻¹ and a kon of 56200 M⁻¹ s⁻¹.
